B1: S009-F7.41.18 (antibody, human IgG1, kappa, V domains shown)
VH: QVQLQQPGTELVKPGASVKLSCKASDYTFTSYWMHWVKQRPGQGLEWIGSINPSNGDTYYNEKFKNKATLTVDKSSSTAYMQLSSLTSDDSAVYYCARGWYFDVWGTGTTVTVSS
VL: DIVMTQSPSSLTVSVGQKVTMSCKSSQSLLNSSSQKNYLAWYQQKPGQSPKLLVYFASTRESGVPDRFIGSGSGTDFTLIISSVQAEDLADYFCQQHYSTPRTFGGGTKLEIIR
notes: Human-murine chimeric antibody, human IgG1 heavy and kappa light constant regions
B2: S009-F7.26.15 (antibody, human IgG1, kappa, V domains shown)
VH: DVQLQESGPGLVKPSQTVFLTCTVTGISITTGNYRWSWIRQFPGNKLEWIGYIYYTGFITYNPSLTSRTTITRDTPKNQFFLEMKSLTAEDTATYYCARDDYDYDVFAYWGQGTLVTVSA
VL: DIQMTQSPASLSASVGETVTITCRASGNIHNYLAWYHQKQGKSPQFLVYKAKTLADGVPSRFSGSGSGTQYSLKINRLQPEDFGSYYCQHFLSIPLTFGAGTKLELKR
notes: as for B1
B3: S009-F7.44.20 (antibody, human IgG1, kappa, V domains shown)
VH: EVQLQQSGPELVKPGASVKIPCKASGYTFTDYNMDWVKQSHGKSLEWIGDINPSTGGTIYNQKFNGKATLTEDKSASTVYMEFRSLTSDDTAVYYCARRRIGTGYFDVWGTGTTVTVSS
VL: QIVLTQSPALMSASPGEKVTLTCSASSSVISSYLSWYQQKPGSSPKLLIYRTSNLASGVPARFSGSGSGTSYSLTISSMEAEDAASYFCHQWSSFPYTFGGGTKLEIKR
notes: as for B1
B4: S009-F7.61.21 (antibody, human IgG1, kappa, V domains shown)
VH: DVQLQQSGPELVEPGASVRIPCKAAGHTFTDYNVDWVKQSHGQSLEWIGDVNPNTDGAIYNQKFEGKATLTVDTSSSTAYMELRSLTSEDTAVYFCARRRLGQGGFDSWGQGTTLTVSS
VL: B3 VL with I2V, L10I, S24G, V29L, S32K, S35Y, L48W, R51S, F95Y, L105V
notes: as for B1
B5: S009-F7.30.5 (antibody, human IgG1, kappa, V domains shown)
VH: QVQLQQPKTELVKPGASVKLSCKASGYIFTTYWMHWVKQRPGQGLEWIGNVNPSNGGTMYNEKFERRATLTVDKSSSTADMQLSSLTSEDSAVYYCVPHYIGSRPGFAYWGQGTLVTVSG
VL: DIVMTQSQKFMSTSVGDRVSVTCKASQNVGTNVAWYQHKPGQSPKALLYSASYRYSGVPDRFTGSGSGTDFTLTITNVQSEDLAEYFCQQYNSYPLTFGGGTKLEIKR
notes: as for B1
B6: S009-F7.33.24 (antibody, human IgG1, kappa, V domains shown)
VH: B5 VH with K8G, I28T, T31S, T58S, M59N, E65K, R66N, R67K, S84N, V97A
VL: B5 VL with V33I, H38Q, L48I, L104V
notes: as for B1
B7: S009-F7.48.1 (antibody, human IgG1, kappa, V domains shown)
VH: QVQLQQPGTELVKPGASVKLSCKASGYTFTSYWMHWVKQRPGQGLEWIGNINPSNGGTNNNENFKSKATLTVDTSSSTAYMQLSSLTSEDSAVYYCVRNGYHGYWYFDVWGTGTTVTVSS
VL: B5 VL with H38Q, K39Q, L48I, G66V, T76S
notes: as for B1
B8: S009-F7.53.2 (antibody, human IgG1, kappa, V domains shown)
VH: EVQLQQSGPELVKPGASVKIPCKTSGYTFTDYNMDWVKQSHGKSLEWIGDINPNTDGAIYNQKFQNKATLTVDKSSSTAYMELRSLTSEDTAVYYCTRRKLGRKFFDYWGQGTTLTVSS
VL: QIVLTQSPAIMSASPGEQVTMTCSASSSVGYMNWYQQKPGSSPRLLIYDTSNLASGVPVHFSGSGSGTSYSLTISRMEAAFAATYYCQQWYVYPYTFGGGTKLEIKR
notes: as for B1

Where a chain is given by its changes, count along the chain named.

The target of one assay is T1, human MSLN-R2-his protein (human, UniProt Q13421 391-486).
T1 construct: it is put last here; also called human MSLN-R2 protein; hMSLN-R2-his; not shown: His tag
T1 sequence (Q13421 other isoform, or with tags, fused parts or gaps): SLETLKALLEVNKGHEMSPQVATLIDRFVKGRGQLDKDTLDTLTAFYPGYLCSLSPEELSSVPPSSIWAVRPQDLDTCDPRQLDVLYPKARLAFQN
Nature of the assay: ELISA on coated antigen, antibody 2 nM.
In the case of B1, the OD450 was found to be 0.11 OD.

Molecule B2 came in with an OD450 of 0.05 OD.

For B3, the OD450 came out at 0.05 OD.

In turn, B4 returned an OD450 of 0.05 OD.

B5 had an OD450 of 0.06 OD.

Molecule B6 showed an OD450 of 0.06 OD.

The molecule B7 gave an OD450 of 0.05 OD.

In turn, B8 gave an OD450 of 0.05 OD.

For another assay, the target named is T2, human MSLN-R3-his protein (human, UniProt Q13421 487-598).
T2 construct: it is put last here; also called human MSLN-R3 protein; hMSLN-R3-his; not shown: His tag
T2 sequence (Q13421 495-606): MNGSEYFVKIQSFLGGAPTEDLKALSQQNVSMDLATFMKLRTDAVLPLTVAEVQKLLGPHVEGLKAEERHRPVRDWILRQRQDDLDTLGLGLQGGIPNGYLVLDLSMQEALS
Nature of the assay: ELISA on coated antigen, no antibody (blank, column 'none').
In turn, B1 gave an OD450 of 0.06 OD.

B2 returned an OD450 of 0.07 OD.

B3 returned an OD450 of 0.06 OD.

B4 gave an OD450 of 0.06 OD.

With B5, the OD450 stood at 0.09 OD.

For B6, the OD450 worked out at 0.08 OD.

On to B7, for which the OD450 was 0.06 OD.

On to B8, for which the OD450 stood at 0.06 OD.

The target of the next assay is T2, human MSLN-R3-his protein. Nature of the assay: ELISA on coated antigen, antibody 200 nM. A general note: An ELISA detects its analyte on a solid surface through an enzyme-linked reagent.
Protocol: (§1) The plate was sealed with a plastic film and incubated at 4° C. overnight. The next day, the plate was washed twice with PBST, and a blocking buffer [PBS+2% (w/w) BSA] was added for blocking at room temperature for 2 h. The blocking buffer was discarded, and a chimeric antibody or negative control antibody serially diluted from 100 nM was added at 50 μL/well. After incubation at 37° C. for 2 h, the plate was washed 3 times with PBST. […] After incubation at 37° C. for 2 h, the plate was washed 5 times with PBST. A TMB substrate was added at 50 μL/well for incubation at room temperature for 5-10 min, and then a stop solution (1.0 N HCl) was added at 50 μL/well.
As to B1, the OD450 came to 3 OD.

The molecule B2 had an OD450 of 2.74 OD.

B3 came in with an OD450 of 2.91 OD.

On to B4, for which the OD450 was found to be 2.61 OD.

For B5, the OD450 was found to be 2.71 OD.

For B6, the OD450 turned out to be 2.84 OD.

For B7, the OD450 turned out to be 2.69 OD.

Consider B8, for which the OD450 was found to be 2.69 OD.

For the next assay, the target named is T2, human MSLN-R3-his protein. Nature of the assay: ELISA on coated antigen, antibody 0.0002 nM.
Protocol: as §1
B1 registered an OD450 of 0.07 OD.

B2 gave an OD450 of 0.16 OD.

In turn, B3 came in with an OD450 of 0.1 OD.

The molecule B4 had an OD450 of 0.05 OD.

Turning to B5, the OD450 amounted to 0.25 OD.

B6 came in with an OD450 of 0.23 OD.

B7 had an OD450 of 0.05 OD.

Molecule B8 had an OD450 of 0.05 OD.

Another assay concerns the target T1, human MSLN-R2-his protein. Nature of the assay: ELISA on coated antigen, antibody 200 nM.
Protocol: as §1
Molecule B1 came in with an OD450 of 0.15 OD.

Molecule B2 returned an OD450 of 0.18 OD.

B3 had an OD450 of 0.1 OD.

Consider B4, for which the OD450 was 0.09 OD.

B5 registered an OD450 of 0.5 OD.

Take B6: the OD450 was found to be 0.08 OD.

Molecule B7 showed an OD450 of 0.09 OD.

B8 had an OD450 of 0.08 OD.

A further assay has as its target T1, human MSLN-R2-his protein. Nature of the assay: ELISA on coated antigen, antibody 0.02 nM.
Protocol: as §1
B1 registered an OD450 of 0.07 OD.

Consider B2, for which the OD450 turned out to be 0.05 OD.

With B3, the OD450 is 0.05 OD.

With B4, the OD450 came to 0.05 OD.

In the case of B5, the OD450 is 0.05 OD.

On to B6, for which the OD450 amounted to 0.06 OD.

In turn, B7 yielded an OD450 of 0.05 OD.

B8: the OD450 came to 0.05 OD.

For another assay, the target named is T1, human MSLN-R2-his protein. Nature of the assay: ELISA on coated antigen, antibody 20 nM.
Protocol: as §1
For B1, the OD450 is 0.12 OD.

B2 returned an OD450 of 0.08 OD.

B3: the OD450 stood at 0.06 OD.

For the molecule B4, the OD450 amounted to 0.06 OD.

The molecule B5 gave an OD450 of 0.15 OD.

Consider B6, for which the OD450 is 0.04 OD.

As for B7, the OD450 was found to be 0.07 OD.

Consider B8, for which the OD450 amounted to 0.06 OD.

The target in another assay is T2, human MSLN-R3-his protein. Nature of the assay: ELISA on coated antigen, antibody 0.02 nM.
For the molecule B1, the OD450 was determined as 0.69 OD.

With B2, the OD450 was 1.63 OD.

Consider B3, for which the OD450 was 0.9 OD.

Molecule B4 showed an OD450 of 0.17 OD.

With B5, the OD450 amounted to 1.7 OD.

Consider B6, for which the OD450 was found to be 2.13 OD.

For B7, the OD450 amounted to 0.26 OD.

B8 had an OD450 of 0.14 OD.

Another assay addresses T1, human MSLN-R2-his protein. Nature of the assay: ELISA on coated antigen, antibody 0.0002 nM.
Protocol: as §1
With B1, the OD450 worked out at 0.07 OD.

Regarding B2, the OD450 amounted to 0.05 OD.

B3 showed an OD450 of 0.05 OD.

B4 gave an OD450 of 0.05 OD.

As for B5, the OD450 was 0.05 OD.

In turn, B6 returned an OD450 of 0.06 OD.

Turning to B7, the OD450 was found to be 0.05 OD.

B8 displayed an OD450 of 0.05 OD.

In another assay the target is T2, human MSLN-R3-his protein. Nature of the assay: ELISA on coated antigen, antibody 0.2 nM.
Protocol: as §1
B1 displayed an OD450 of 1.92 OD.

Turning to B2, the OD450 was found to be 2.45 OD.

In turn, B3 showed an OD450 of 2.2 OD.

In the case of B4, the OD450 came to 0.8 OD.

B5 had an OD450 of 2.66 OD.

B6 displayed an OD450 of 2.7 OD.

B7 had an OD450 of 0.94 OD.

B8 returned an OD450 of 0.5 OD.

In another assay the target is T1, human MSLN-R2-his protein. Nature of the assay: ELISA on coated antigen, antibody 0.002 nM.
Protocol: as §1
For the molecule B1, the OD450 was 0.07 OD.

B2 registered an OD450 of 0.05 OD.

B3 came in with an OD450 of 0.05 OD.

B4 gave an OD450 of 0.05 OD.

Molecule B5 showed an OD450 of 0.05 OD.

Molecule B6 returned an OD450 of 0.06 OD.

For B7, the OD450 came to 0.05 OD.

B8 came in with an OD450 of 0.05 OD.

The next assay concerns the target T2, human MSLN-R3-his protein. Nature of the assay: ELISA on coated antigen, antibody 2 nM.
Protocol: as §1
As to B1, the OD450 turned out to be 2.43 OD.

B2 yielded an OD450 of 2.79 OD.

The molecule B3 displayed an OD450 of 2.46 OD.

As for B4, the OD450 was determined as 2.17 OD.

As to B5, the OD450 is 2.75 OD.

Regarding B6, the OD450 came to 2.85 OD.

In the case of B7, the OD450 was 2.05 OD.

The molecule B8 gave an OD450 of 1.71 OD.

A further assay concerns the target T2, human MSLN-R3-his protein. Nature of the assay: ELISA on coated antigen, antibody 20 nM.
Protocol: as §1
B1 came in with an OD450 of 2.46 OD.

Molecule B2 registered an OD450 of 2.73 OD.

B3: the OD450 was 2.48 OD.

As for B4, the OD450 was determined as 2.39 OD.

The molecule B5 returned an OD450 of 2.84 OD.

B6 had an OD450 of 2.67 OD.

Regarding B7, the OD450 was determined as 2.43 OD.

Molecule B8 gave an OD450 of 2.42 OD.

The target of a further assay is T1, human MSLN-R2-his protein. Nature of the assay: ELISA on coated antigen, no antibody (blank, column 'none').
Protocol: as §1
Take B1: the OD450 amounted to 0.08 OD.

Molecule B2 gave an OD450 of 0.06 OD.

As for B3, the OD450 stood at 0.06 OD.

In turn, B4 showed an OD450 of 0.07 OD.

Molecule B5 registered an OD450 of 0.06 OD.

B6 came in with an OD450 of 0.07 OD.

Molecule B7 showed an OD450 of 0.06 OD.

For B8, the OD450 amounted to 0.07 OD.

For a further assay, the target named is T1, human MSLN-R2-his protein. Nature of the assay: ELISA on coated antigen, antibody 0.2 nM.
Protocol: as §1
B1 yielded an OD450 of 0.07 OD.

In turn, B2 came in with an OD450 of 0.05 OD.

B3 showed an OD450 of 0.05 OD.

As to B4, the OD450 was determined as 0.05 OD.

Molecule B5 had an OD450 of 0.06 OD.

Consider B6, for which the OD450 amounted to 0.06 OD.

The molecule B7 yielded an OD450 of 0.05 OD.

B8: the OD450 was found to be 0.05 OD.

In another assay the target is T2, human MSLN-R3-his protein. Nature of the assay: ELISA on coated antigen, antibody 0.002 nM.
Protocol: as §1
B1 had an OD450 of 0.12 OD.

Turning to B2, the OD450 was found to be 0.6 OD.

As to B3, the OD450 turned out to be 0.27 OD.

For B4, the OD450 amounted to 0.06 OD.

With B5, the OD450 stood at 0.74 OD.

For the molecule B6, the OD450 came out at 1.04 OD.

Consider B7, for which the OD450 is 0.08 OD.

The molecule B8 showed an OD450 of 0.06 OD.

These data come from patent US20250250357A1 (NANJING ZAIMING PHARMACEUTICAL, published 2025).
